# Measured values taken from patent US20240398993A1, “SMALL MOLECULE-REGULATED GENE EXPRESSION SYSTEM” (Outpace Bio, Inc., priority 2021, published 2024).
# Entries after “also recorded” stand apart in the source; their conditions may differ.
# Experiments:
# [1] = tested on: HEK293 cells; assay: Danoprevir-induced EGFP reporter expression in transduced HEK293 cells, flow cytometry; type: cell-based
# [2] = tested on: Jurkat cells; assay: Danoprevir-induced GFP/EGFP reporter expression in transduced Jurkat cells, flow cytometry; type: cell-based; details: for induced GFP expression (gMFI): 500 nM danoprevir 24 hours, ZF DBD-NS3a / DNCR2-TAD panel, YB_TATA minimal promoter, FIG. 11
# [3] = titration of danoprevir, IPV16/TFV1 versus IPV16/TFV23, FIG. 18
molecule,measurement,setting,value
"CC(C)(C)OC(=O)N[C@H]1CCCCC/C=C\[C@@H]2C[C@@]2(C(=O)NS(=O)(=O)C2CC2)NC(=O)[C@@H]2C[C@@H](OC(=O)N3Cc4cccc(F)c4C3)CN2C1=O [danoprevir, (2R,6S,12Z,13aS,14aR,16aS)-14a-[(Cyclopropylsulfonyl)carbamoyl]-6-({[(2-methyl-2-propanyl)oxy]carbonyl}amino)-5,16-dioxo-1,2,3,5,6,7,8,9,10,11,13a,14,14a,15,16,16a-hexadecahydrocyclopropa[e]pyrrolo[1,2-a][1,4]diazacyclopentadecin-2-yl 4-fluoro-1,3-dihydro-2H-isoindole-2-carboxylate, reference compound]",danoprevir EC50 of EGFP expression,[1]; [3],equivalent
same,maximal EGFP expression levels,[1]; [3],equivalent
"ANR-SPOP: E3 ligase SPOP fused to the apo-NS3a reader ANR, SEQ ID NO: 157, expressed from IPV18 or TFV23 (protein, Synthetic polypeptide ANR-SPOP) GELDELVYLLDGPGYDPIHSDVVTRGGSHLFNFSGSSGGSGVNISGQNTMNMVKVPECRLADELGGLWENSRFTDCCLCVAGQEFQAHKAILAARSPVFSAMFEHEMEESKKNRVEINDVEPEVFKEMMCFIYTGKAPNLDKMADDLLAAADKYALERLKVMCEDALCSNLSVENAAEILILADLHSADQLKTQAVDFINYHASDVLETSGWKSMVVSHPHLVAEAYRSLASAQCPFLGPPRKRLKQS","maximal danoprevir-induced EGFP expression, element expressed inducibly from the inducible promoter vector","[1]; 100 nM danoprevir, HEK293 cells, plot 1725",reduced the maximal danoprevir-induced EGFP expression
same,"danoprevir-induced EGFP expression, element expressed from the transcription factor vector","[1]; 100 nM danoprevir, HEK293 cells, plot 1730",maintaining high danoprevir-induced expression
same,"background EGFP expression level, fold lower than the system without ANR-SPOP","[1]; DMSO, IPV16/TFV23 versus IPV16/TFV1, plot 1800",about 3 times
same,"background (leaky) EGFP expression, DMSO","[1]; HEK293 cells, compared to wild type cells, FIG. 16-18",effectively removed any leaky background expression of EGFP; also recorded: indistinguishable from wild type HEK293 cells
"p65: transcriptional activation domain fused to DNCR2 (SEQ ID NO: 51) (protein, Synthetic polypeptide DNCR2-p65mini) SSDEEEARELIERAKEAAERAQEAAERTGDPRVRELARELKRLAQEAAEEVKRDPSSSDVNEALKLIVEAIEAAVDALEAAERTGDPEVRELARELVRLAVEAAEEVQRNPSSSDVNEALHSIVYAIEAAIFALEAAERTGDPEVRELARELVRLAVEAAEEVQRNPSSRNVEHALMRIVLAIYLAEENLREAEESGDPEKREKARERVREAVERAEEVQRDPSGWLNHSGGGSGVDGSPKKKRKVGSVLPQAPAPAPAPAMVSALAQAPAPVPVLAPGPPQAVAPPAPKPTQAGEGTLSEALLQLQFDDEDLGALLGNSTDPAVFTDLASVDNSEFQQLLNQGIPVAPHTTEPMLMEYPEAITRLVTGAQRPPDPAPAPLGAPGLPNGLLSGDEDFSSIADMDFSALL",induced GFP expression (gMFI),[2],very weak
"ZFHIV2: zinc finger DNA binding domain fused to NS3a (NS3a-ZFHIV2, SEQ ID NO: 71) (protein, Synthetic polypeptide NS3a-ZFHIV2) KKKGSVVIVGRINLSGDTAYAQQTRGEEGCQETSQTGRDKNQVEGEVQIVSTATQTFLATSINGVLWTVYHGAGTRTIASPKGPVTQMYTNVDKDLVGWQAPQGSRSLTPCTCGSSDLYLVTRHADVIPVRRRGDSRGSLLSPRPISYLKGSAGGPLLCPAGHAVGIFRAAVSTRGVAKAVDFIPVESLETTMRSPGSGAAASGGGGSGGGGSGGTPPHERPFQCRICMRNFSNNAMLVRHTRTHTGEKPFQCRICMRNFSLSQTLQRHLRTHTGEKPFQCRICMRNFSMQGNLSRHLKTHLRGS",induced GFP expression (gMFI),[2],highest induced GFP levels
same,"induction of GFP expression (gMFI), 12×RE versus 6×RE","[2]; DNCR2-VPRmini, FIG. 12",lower induction
same,"induction of GFP expression (gMFI), leucine zipper (LZ) between NS3a and ZF versus direct fusion","[2]; DNCR2-VPRmini, TFV19, TFV20, FIG. 12",higher maximal induction
"p65-HSF1: transcriptional activation domain of all-human components fused to DNCR2 (SEQ ID NO: 52) (protein, Synthetic polypeptide DNCR2-p65mini-HSF1) SSDEEEARELIERAKEAAERAQEAAERTGDPRVRELARELKRLAQEAAEEVKRDPSSSDVNEALKLIVEAIEAAVDALEAAERTGDPEVRELARELVRLAVEAAEEVQRNPSSSDVNEALHSIVYAIEAAIFALEAAERTGDPEVRELARELVRLAVEAAEEVQRNPSSRNVEHALMRIVLAIYLAEENLREAEESGDPEKREKARERVREAVERAEEVQRDPSGWLNHSGGGSGVDGSPKKKRKVGSVLPQAPAPAPAPAMVSALAQAPAPVPVLAPGPPQAVAPPAPKPTQAGEGTLSEALLQLQFDDEDLGALLGNSTDPAVFTDLASVDNSEFQQLLNQGIPVAPHTTEPMLMEYPEAITRLVTGAQRPPDPAPAPLGAPGLPNGLLSGDEDFSSIADMDFSALLSGSGGFSVDTSALLDLFSPSVTVPDMSLPDLDSSLASIQELLSPQEPPRPPEAENSSPDSGKQLVHYTAQPLFLLDPGSVDTGSNDLPVLFELGEGSYFSEGDGFAEDPTISLLTGSEPPKAKDPTVS",induced GFP expression (gMFI),[2],moderate induction levels
